Key:
[1] = target: purified human properdin (human) (UniProt P27918); experiment: cell-based or functional assay
[2] = target: purified human properdin (human) (UniProt P27918); experiment: ELISA, preformed C3bBbP on C3b-coated plates incubated with increasing IRAC II; bound properdin detected with anti-properdin antibody
[3] = target: purified human properdin (human) (UniProt P27918); experiment: ELISA, preformed C3bBbP on C3b-coated plates incubated with increasing IxAC-B1; bound properdin detected with anti-properdin antibody

Sequence of purified human properdin (human) (P27918 28-469 limits assumed): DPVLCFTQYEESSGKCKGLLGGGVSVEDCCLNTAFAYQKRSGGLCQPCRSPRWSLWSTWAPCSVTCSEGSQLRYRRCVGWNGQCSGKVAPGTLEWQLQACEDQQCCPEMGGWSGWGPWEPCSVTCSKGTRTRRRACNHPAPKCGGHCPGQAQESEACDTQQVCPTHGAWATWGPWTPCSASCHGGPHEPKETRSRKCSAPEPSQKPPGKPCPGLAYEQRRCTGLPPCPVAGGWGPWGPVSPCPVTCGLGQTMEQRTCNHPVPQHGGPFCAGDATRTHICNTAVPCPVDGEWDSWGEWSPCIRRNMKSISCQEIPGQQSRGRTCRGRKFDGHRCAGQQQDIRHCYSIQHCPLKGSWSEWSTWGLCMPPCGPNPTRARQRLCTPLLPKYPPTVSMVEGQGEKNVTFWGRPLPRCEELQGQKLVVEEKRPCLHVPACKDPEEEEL

recombinant IRAC I-V5His (Ixodes ricinus anticomplement protein I)
inhibition of alternative pathway haemolysis of rabbit red blood cells by human serum [1]: 85%

recombinant IRAC II-V5His (Ixodes ricinus anticomplement protein II)
percent of pre-bound properdin displaced [2]: 50% | inhibition of alternative pathway haemolysis of rabbit red blood cells by human serum [1]: 85%

recombinant IxAC-B1-V5His
percent of pre-bound properdin displaced [3]: 50% | inhibition of alternative pathway haemolysis of rabbit red blood cells by human serum [1]: 85%

recombinant IxAC-B2-V5His
inhibition of alternative pathway haemolysis of rabbit red blood cells by human serum [1]: 85%

recombinant IxAC-B3-V5His
inhibition of alternative pathway haemolysis of rabbit red blood cells by human serum [1]: 85%

recombinant IxAC-B4-V5His
inhibition of alternative pathway haemolysis of rabbit red blood cells by human serum [1]: 85%

recombinant IxAC-B5-V5His
inhibition of alternative pathway haemolysis of rabbit red blood cells by human serum [1]: 85%

Source: US20110008351A1
